The source of these data is US20020019514A1 (Harvard, published 2002).

The target in the test is T1, CIITA (expressed from the CIITA expression vector pCMV.CIITA) (UniProt P33076 1-1130).
T1 sequence (looked up): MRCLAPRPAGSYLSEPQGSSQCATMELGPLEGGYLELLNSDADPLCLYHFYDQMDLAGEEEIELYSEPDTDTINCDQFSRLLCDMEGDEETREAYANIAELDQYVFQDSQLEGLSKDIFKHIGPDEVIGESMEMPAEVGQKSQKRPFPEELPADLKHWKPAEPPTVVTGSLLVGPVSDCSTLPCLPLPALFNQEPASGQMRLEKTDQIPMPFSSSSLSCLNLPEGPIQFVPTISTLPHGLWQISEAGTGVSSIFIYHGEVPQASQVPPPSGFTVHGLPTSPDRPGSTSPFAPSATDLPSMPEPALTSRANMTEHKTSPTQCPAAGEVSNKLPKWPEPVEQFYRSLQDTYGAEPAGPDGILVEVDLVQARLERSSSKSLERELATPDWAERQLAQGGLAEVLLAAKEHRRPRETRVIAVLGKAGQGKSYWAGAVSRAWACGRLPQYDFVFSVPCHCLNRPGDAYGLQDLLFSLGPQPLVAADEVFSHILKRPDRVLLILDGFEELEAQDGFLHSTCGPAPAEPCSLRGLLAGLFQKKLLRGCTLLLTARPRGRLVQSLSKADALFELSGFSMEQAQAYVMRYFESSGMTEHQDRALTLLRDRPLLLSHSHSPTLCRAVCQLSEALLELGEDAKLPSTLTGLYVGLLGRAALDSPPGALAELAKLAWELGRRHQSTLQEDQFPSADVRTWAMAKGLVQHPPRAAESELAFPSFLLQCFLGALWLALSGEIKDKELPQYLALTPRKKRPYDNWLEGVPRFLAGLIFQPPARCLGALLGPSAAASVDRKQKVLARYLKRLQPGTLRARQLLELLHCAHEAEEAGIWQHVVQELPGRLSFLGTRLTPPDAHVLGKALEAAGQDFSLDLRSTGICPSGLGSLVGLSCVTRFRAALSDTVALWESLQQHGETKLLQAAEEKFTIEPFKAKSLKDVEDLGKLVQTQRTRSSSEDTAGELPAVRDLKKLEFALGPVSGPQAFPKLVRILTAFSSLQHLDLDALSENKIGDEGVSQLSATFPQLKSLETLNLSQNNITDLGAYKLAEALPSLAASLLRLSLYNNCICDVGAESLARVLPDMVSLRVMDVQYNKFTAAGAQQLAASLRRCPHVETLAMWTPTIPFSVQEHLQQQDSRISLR
As to the kind of experiment: cell-based or functional assay.

B1: CIITA-Interacting Protein 104 (CIP104) (other)
chain: MKMLDESIRKEEEQQQHEAGVAPQPPLKEPFASLQSPFPTDTAPTTTAPAVAVTTTTTTTTTTTATQEEEKKPPPALPPPPPLAKFPPPSQPQPPPPPPPSPASLLKSLASVLEGQKYCYRGTGAAVSTRPGPLPTTQYSPGPPSGATALPPTSAAPSAQGSPQPSASSSSQFSTSGGPWARERRAGEEPVPGPMTPTQPPPPLSLPPARSESEVLEEISRACETLVERVGRSATDPADPVDTAEPADSGTERLLPPAQAKEEAGGVAAVSGSCKRRQKEHQKEHRRHRRACKDSVGRRPREGRAKAKAKVPKEKSRRVLGNLDLQSEEIQGREKSRPDLGGASKAKPPTAPAPPSAPAPSAQPTPPSASVPGKKAREEAPGPPGVSRADMLKLRSLSEGPPKELKIRLIKVESGDKETFIASEVEERRLRMADLTISHCAADVVRASRNAKVKGKFRESYLSPAQSVKPKINTEEKLPREKLNPPTPSIYLESKRDAFSPVLLQFCTDPRNPITVIRGLAGSLRLNLGLFSTKTLVEASGEHTVEVRTQVQQPSDENWDLTGTRQIWPCESSRSHTTIAKYAQYQASSFQESLQEEKESEDEESEEPDSTTGTPPSSAPDPKNHHIIKFGTNIDLSDAKRWKPQLQELLKLPAFMRVTSTGNMLSHVGHTILGMNTVQLYMKVPGSRTPGHQENNNFWSVNINIGPGDCEWFAVHEHYWETIRAFCDRHGVDYLTGSWWPILDDLYASNIPVYRFVQRPGDLVWINAGTVHWVQATGWCNNIAWNVGPLTAYQYQLALERYEWNEVKNVKSIVPMIHVSWNVARTVKISDPDLFKMIKFCLLQSMKHCQVQRESLVRAGKKIAYQGRVKDEPAYYCNDCDVEVFNILFVTSENGSRNTYLVHCEGCARRRSAGLQGVVVLEQYRTEELAQAYDAFTLAPASTSR
As to B1, the “CIITA-mediated DRα-CAT expression (DRα promoter CAT reporter in cotransfected cells)” value was ~30 fold.
